The chains are these.
B1: A1AT-M351V/L353A/M358V (other)
chain: EDPQGDAAQKTDTSHHDQDHPTFNKITPNLAEFAFSLYRQLAHQSNSTNIFFSPVSIATAFAMLSLGTKADTHDEILEGLNFNLTEIPEAQIHEGFQELLRTLNQPDSQLQLTTGNGLFLSEGLKLVDKFLEDVKKLYHSEAFTVNFGDTEEAKKQINDYVEKGTQGKIVDLVKELDRDTVFALVNYIFFKGKWERPFEVKDTEEEDFHVDQVTTVKVPMMKRLGMFNIQHCKKLSSWVLLMKYLGNATAIFFLPDEGKLQHLENELTHDIITKFLENEDRRSASLHLPKLSITGTYDLKSVLGQLGITKVFSNGADLSGVTEEAPLKLSKAVHKAVLTIDEKGTEAAGAVFAEAIPVSIPPEVKFNKPFVFLMIEQNTKSPLFMGKVVNPTQK
B2: A1AT-M351V/L353S/M358V (other)
chain: B1 chain with A353S
B3: A1AT-M351V/L353T/M358V (other)
chain: B1 chain with A353T

Numbering of substitutions follows the chain as printed. Names may count otherwise.

Experimental findings from patent US20240409614A1 (DANMARKS TEKNISKE UNIVERSITET, published 2024) are described below.

The assay deals with elastase (EnzChek Elastase Assay kit, Invitrogen). Description: cell-based or functional assay.
For B1, the “IC50 (anti-elastase activity), first determination” value (“IC50 … first determination” for short) amounted to 74.6 nM and the “IC50 (anti-elastase activity), second determination” value (shortened to “IC50 … second determination”) came to 78.2 nM.
With B2, the “IC50 … first determination” value is 86.9 nM and the “IC50 … second determination” value was 108 nM.
Consider B3, for which the “IC50 … first determination” value was 98.9 nM and the “IC50 … second determination” value amounted to 115 nM.
